Results from patent publication US20260027179A1, “ANTI-SYNUCLEINOPATHY PEPTIDE AND METHODS TO TREAT NEURODEGENERATIVE DISEASES” (University of British Columbia, priority 2021, published 2026).

Assays:
Iba-1 = assay: PFF mouse model of spreading synucleinopathy, microglial Iba-1 immunostaining; format: in vivo; settings: PFF-injected M83 mice, 40 mg/kg i.p. over 20 days, at three months, vs Tat-βsyn group
Description: M83 mice were injected intracerebrally (i.e.) into the right dorsal striatum with either 12.5 μg of α-synuclein pre-formed fibrils (PFFs) or PBS. Starting at 3 days prior to the PFF injection, mice were treated daily for 12 days with either Tat-βsyn or Tat-βsyn-degron peptide (40 mg/kg; i.p.) and once every other day for the subsequent 8 days (20 days in total, FIG. 5a). At the end of three months, coronal brain sections of the M83 mice were prepared and stained with antibodies against serine 129-phosphorylated α-synuclein (pS129syn), a marker of pathogenic synuclein aggregates, and Iba-1, a calcium-binding protein specifically expressed in macrophage and microglia as a marker of neuroinflammation.
PFFs were generated in-house based on the Volpicelli-Daley et al protocol. […] PFFs were characterized using a negative staining protocol and analyzed using an electron microscope. […] PFFs were visualized using a transmission electron microscope (FEI Tecnai 12 Bio Twin 120 kV TEM) coupled to a AMT XR80C CCD camera, and analyzed with ImageJ 1.5 and Matlab 2017b software. […]
Brains from M83 mice that received i.e. and i.p. injections were processed for immunohistochemistry. […] Coronal sections were analyzed using Fiji-ImageJ 1.5 software to detect the total area labeled with the peroxidase immunoreaction product. The results were analyzed using GraphPad Prism software.

endogenous α-synuclein [1] = molecular target: T1, endogenous α-synuclein (Rattus norvegicus, UniProt P37377); assay: α-synuclein level in MPP+-treated ventral midbrain cultures, immunoblot; format: cell-based; settings: 25 μM, 48 hrs, MPP+ 20 μM
T1 construct: endogenous in cells; host or cells: primary rat cortical neurons (14 DIV) and primary rat ventral midbrain neurons (3 DIV)
Description: Primary rat neuron cultures were prepared from embryos of pregnant Sprague-Dawley rats (E18). The experimental protocol was approved by the University of British Columbia Animal Care Committee. Briefly, the cortical tissue or ventral midbrain tissue was isolated into ice cold HBSS (Invitrogen, 14170-112) and then digested with 0.25% trypsin-EDTA at 37° C. for 30 min. After washing with warm DMEM (supplemented with 10% FBS) three times, neurons were suspended in neuron culture media and dissociated by trituration using varying sizes of pipettes. Neurons were then centrifuged, and the pellet was re-suspended in culture media, washed twice with culture media, and plated on the poly-D-lysine-coated plates. Neuron culture was maintained in the 37° C. incubator with 95% O2 and 5% CO2. The morning after culturing, 2/3 of the neuron culture media was replaced with fresh neuron culture media. Media was then replaced every 3-4 days. […]
Brain tissues or cultured cells were lysed on ice in the lysis buffer and then the solution was centrifuged at 14,000 rpm for 10 min at 4° C. Next, the supernatant was collected and protein concentrations were determined using a BCA protein assay kit (Thermo Scientific, 23227). […] The band density of each protein was quantified by the Bio-Rad Quantity One software and the relative optical density was analyzed relative to the loading control β-actin on the same membrane.

endogenous α-synuclein [2] = molecular target: T1, endogenous α-synuclein; assay: Knockdown of endogenous α-synuclein in primary cortical neuron cultures, immunoblot; format: cell-based
Description: Primary rat neuron cultures were prepared from embryos of pregnant Sprague-Dawley rats (E18). The experimental protocol was approved by the University of British Columbia Animal Care Committee. Briefly, the cortical tissue or ventral midbrain tissue was isolated into ice cold HBSS (Invitrogen, 14170-112) and then digested with 0.25% trypsin-EDTA at 37° C. for 30 min. After washing with warm DMEM (supplemented with 10% FBS) three times, neurons were suspended in neuron culture media and dissociated by trituration using varying sizes of pipettes. Neurons were then centrifuged, and the pellet was re-suspended in culture media, washed twice with culture media, and plated on the poly-D-lysine-coated plates. Neuron culture was maintained in the 37° C. incubator with […] and 5% CO2. The morning after culturing, 2/3 of the neuron culture media was replaced with fresh neuron culture media. Media was then replaced every 3-4 days. Primary rat cortical neuron culture was used 14 days in vitro (DIV) and primary rat ventral midbrain neuron culture was used 3 DIV.
Tat-βsyn-degron and Tat-βsyn peptides were first dissolved in sterile water as a 25 mM stock solution and then diluted directly in the neurobasal culture media to make the desired working concentration. 20 mM MPP+iodide stock solution was made freshly each time and diluted in the neurobasal culture media directly to make the desired working concentration. For 48 hrs treatment, neuron culture media containing MPP+ and peptides were replaced every 24 hrs.
Brain tissues or cultured cells were lysed on ice in the lysis buffer and then the solution was centrifuged at 14,000 rpm for 10 min at 4° C. Next, the supernatant was collected and protein concentrations were determined using a BCA protein assay kit (Thermo Scientific, 23227). Equal amount of protein samples was mixed with 4× sample buffer, boiled at 100° C. for 5 min, and separated on 10% sodium dodecyl sulphate-polyacrylamide gel electrophoresis (SDS-PAGE). Proteins were then transferred to Immobilon-PTM polyvinylidene fluoride (PVDF) membranes (Bio-Rad, 162-0177). The membranes were blocked with 5% non-fat milk in Tris-buffered saline containing 0.1% Tween-20 (TBST) for 1 hr at room temperature, and then incubated overnight at 4° C. with primary antibody. After washing 3×5 min in TBST, membranes were incubated with horseradish peroxidase-conjugated secondary antibody for 1 hr at room temperature. After another three washes with TBST, protein was visualized in the Bio-Rad Imager using ECL western blotting substrate (Pierce, 32016). The band density of each protein was quantified by the Bio-Rad Quantity One software and the relative optical density was analyzed relative to the loading control β-actin on the same membrane.

YGRKKRRQRRRRTKSGVYLVGRRRG (The sequence is synthesized (YGRKKRRQRRRRTKSGVYLVGRRRG)) [Tat-βsyn-degron]
Iba-1 staining in pons (Iba-1): significantly reduced the level of Iba-1 staining | Iba-1 staining in substantia nigra pars compacta (Iba-1): no observable effect | endogenous α-synuclein protein levels (endogenous α-synuclein [1]): induced a robust reduction in endogenous α-synuclein protein levels | time course of knockdown of endogenous α-synuclein (endogenous α-synuclein [2]; 50 μM bath application, primary cortical cultures): induced a time-dependent knockdown of endogenous α-synuclein | endogenous α-synuclein protein levels (endogenous α-synuclein [2]; bath application 24 hrs, 5-50 μM (control 50 μM), cortical neuron cultures): robust reduction of endogenous α-synuclein protein levels in a dose-dependent manner
